Data taken from US20250340646A1.
Values belong to the binder of their own block, whether it stands above or below them.

Legend:
human PD-L1-Fc (human) [1] = target: human PD-L1-Fc (human) (UniProt Q9NZQ7); assay: SPR, PD-L1-Fc captured, scFv analyte
human PD-L1-Fc (human) [2] = target: human PD-L1-Fc (human) (UniProt Q9NZQ7); assay: ELISA, coated PD-L1-Fc, anti-FLAG HRP
[3] = target: PD-L1 biotinylated (PD-1/PD-L1 TR-FRET assay kit, BPS 72038) (Homo sapiens (Human)) (UniProt Q9NZQ7); assay: HTRF competition, competitor PD-1-Eu
[4] = target: PD-L1 on PD-L1 aAPC/CHOK1 cells (Promega J1250); assay: cell-based or functional assay
[5] = target: full-length human PD-L1 on K562 cells (human) (UniProt Q9NZQ7); assay: FACS, PD-L1/K562 cells

Kd (human PD-L1-Fc (human) [1]): 2.94 nM
koff (human PD-L1-Fc (human) [1]): 0.000722 s⁻¹
kon (human PD-L1-Fc (human) [1]): 245000 M⁻¹ s⁻¹
EC50 (human PD-L1-Fc (human) [2]): 1.27 nM
IC50 [3]: 173 nM
Jurkat NFAT reporter assay EC50 [4]: 129 nM
B1: 2018EP164-F04 scFv (scFv, part only; not given: linker and tags, not shown: small tags and cut ends)
scFv, part: QVQLQQWGAGLLKPSETLSLTCAVYGGSFSGYYWSWIRQPPGKGLEWIGEINHSGSTNYNPSLKSRVTISVDTSKNQFSLKLSSVTAADTAVYYCARGRRLRYFDWAAYNWFDPWGQGTLVTVSSQSALTQDPAVSVALGQTVRITCQGDSLRSHYASWYQQKPGQAPVVVVYDNSDRPSGIPDRFSGSNSGNTATLTISRVEVGDEADYYCQVWDSSSDHYVFGTGTKV

EC50 [5]: 5.8 nM
B2: 2018EP161-F04 scFv (scFv, part only; not given: linker and tags, not shown: small tags and cut ends)
scFv, part: QMQLVQSGAEVKKPGATVKISCKVSGYTFTDYYMHWVQQAPGKGLEWMGLVDPEDGETIYAEKFQGRVTITADTSTDTAYMELSSLRSEDTAVFYCATDGSGSYYLTLGQGTLVTVSSNFMLTQPSSLSASPGASASLTCTLPSGINVGPYGIFWYQQKPGSPPQYLLRYKSNSENHQGSGVPSRFSGSEDASANVGILLISGLQSEDEADYYCMIWHSSAWVFGGGTKVTVL
